This assay has as its target T1, Cyp33 RRM domain (1–83) (UniProt Q9UNP9 1-83).
T1 sequence (looked up): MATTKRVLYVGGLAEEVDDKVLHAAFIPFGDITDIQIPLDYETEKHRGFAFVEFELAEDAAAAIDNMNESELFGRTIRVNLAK
As to the kind of experiment: NMR titration.

B1: KMT2A PHD3 finger (1565–1627) (domain or fragment, UniProt Q03164 1565-1627, looked up)
chain: KGNFCPLCDKCYDDDDYESKMMQCGKCDRWVHSKCENLSDEMYEILSNLPESVAYTCVNCTER
Take B1: the binding result was “binds”.

For the origin of these results see article PMC3925188 (Biochimica et biophysica acta, 2013).
